Where a chain is given by its changes, count along the chain named. Numbers in names are those of the source.
B1: 5543 (antibody, V domains shown)
VH: QLQLQESGPGLVKPSETLSLTCTVSGGSISSSSYYWGWIRQPPGKGLEWIGSIYYSGSTYYNPSLKSRVTISVDTSKNQFSLKLSSVTAADTAVYYCARVGHGISYFDLWGRGTLVTVSS
VL: EIVLTQSPATLSLSPGERATLSCRASQSVSSYLAWYQQKPGQAPRLLIYDASNRATGIPARFSGSGSGTDFTLTISSLEPEDFAVYYCQQAYVWPPRTFGGGTKVEIK
B2: 5643 (antibody, V domains shown)
VH: B1 VH
VL: B1 VL with A91S, Y92L, V93T
B3: 5902 (antibody, V domains shown)
VH: B1 VH with Y55R, Y60W
VL: B1 VL with N53K, A91V, V93T
B4: hu15G11.v5 IgG Ala variant D27A (HVR-L1) (antibody, V domains shown)
VH: EVQLVQSGAEVKKPGASVKVSCKASGYTFTSYWMHWVRQAPGQRLEWIGEINPTNGRTNYIEKFKSRATLTVDKSASTAYMELSSLRSEDTAVYYCARGTRAYHYWGQGTMVTVSS
VL: DIQMTQSPSSLSASVGDRVTITCRASANLYSNLAWYQQKPGKSPKLLVYDATNLADGVPSRFSGSGSGTDYTLTISSLQPEDFATYYCQHFWGTPLTFGQGTKVEIK
notes: IgG in cell culture supernatant
B5: hu15G11.v5 IgG Ala variant E61A (HVR-H2) (antibody, name in Kabat numbering, V domains shown)
VH: B4 VH with E62A
VL: B4 VL with A27D
notes: IgG in cell culture supernatant; Kabat numbers after 52a lie one below the linear count
B6: hu15G11.v5 IgG Ala variant F63A (HVR-H2) (antibody, name in Kabat numbering, V domains shown)
VH: B4 VH with F64A
VL: B4 VL with A27D
notes: as for B5
B7: hu15G11.v5 IgG Ala variant D56A (HVR-L2) (antibody, V domains shown)
VH: B4 VH
VL: B4 VL with A27D, D56A
notes: as for B4
B8: hu15G11.v5 IgG Ala variant D50A (HVR-L2) (antibody, V domains shown)
VH: B4 VH
VL: B4 VL with A27D, D50A
notes: as for B4
B9: hu15G11.v5 IgG Ala variant F29A (HVR-H1) (antibody, name in Kabat numbering, V domains shown)
VH: B4 VH with F29A
VL: B4 VL with A27D
notes: as for B4
B10: hu15G11.v5 IgG Ala variant E50A (HVR-H2) (antibody, name in Kabat numbering, V domains shown)
VH: B4 VH with E50A
VL: B4 VL with A27D
notes: as for B4
B11: 6266wt (Fab, V domains shown)
VH: QVQLVQSGAEVKKPGSSVKVSCKASGGTLSGYGVSWVRQAPGQGLEWMGNIIPGFGTANYAQKFQGRVTITADESTSTAYMELSSLRSEDTAVYYCARSGGTKYGMLDVWGQGTMVTVSS
VL: EIVMTQSPATLSVSPGERATLSCRASQSVSSNLAWYQQKPGQAPRLLIYGASTRATGIPARFSGSGSGTEFTLTISSLQSEDFAVYYCQQLILWPPRTFGGGTKVEIK
notes: also called ADI6266
B12: 6266.12 Fab (Fab, V domains shown)
VH: B11 VH with S30N
VL: B11 VL
B13: 6266.9 Fab (Fab, V domains shown)
VH: B11 VH with S30K, S99G
VL: B11 VL with T53K
B14: 6266.11 Fab (Fab, V domains shown)
VH: B11 VH
VL: B11 VL with T56Y
B15: 6266.6 Fab (Fab, V domains shown)
VH: B11 VH with G31H, F55I, K103Q
VL: B11 VL with T56Y, F83A
B16: 6266.7 Fab (Fab, V domains shown)
VH: B11 VH with G31H, F55I, M106E
VL: B11 VL with T56Y, F83A
B17: 6266.3 Fab (Fab, V domains shown)
VH: B11 VH with G31H, F55I
VL: B11 VL with T56Y
B18: 6266.1 Fab (Fab, V domains shown)
VH: B11 VH with G31H, F55I
VL: B11 VL
notes: not tied singly
B19: 6266.14 Fab (Fab, V domains shown)
VH: B11 VH with T57V, Y104W
VL: B11 VL
B20: 6266.15 Fab (Fab, V domains shown)
VH: B11 VH with M106E
VL: B11 VL
B21: 6266.2 Fab (Fab, V domains shown)
VH: B11 VH with G31H, F55I
VL: B11 VL with T53K, F83A
B22: 6266.13 Fab (Fab, V domains shown)
VH: B11 VH with V34M
VL: B11 VL
B23: 6266.5 Fab (Fab, V domains shown)
VH: B11 VH with G31H, F55I, K103Q
VL: B11 VL with T53K, F83A
B24: 6266.8 Fab (Fab, V domains shown)
VH: B11 VH with S30K, S99G
VL: B11 VL with T56Y
notes: not tied singly
B25: 6266.4 Fab (Fab, V domains shown)
VH: B11 VH with G31H, F55I
VL: B11 VL with T53K
B26: 6266.10 Fab (Fab, V domains shown)
VH: B11 VH
VL: B11 VL with T53K

target: BACE1 (HTRF long substrate and FRET short substrate assays of Example 9D); assay: cell-based or functional assay

Binder	EC50, FRET short substrate [nM]	EC50, HTRF long substrate [nM]
B1	9.11	30
B2	1.41	17.7

target: BACE1 in primary mouse cortical neurons (mouse, UniProt P56818 46-501); assay: cell-based or functional assay
Sequence (P56818 46-501): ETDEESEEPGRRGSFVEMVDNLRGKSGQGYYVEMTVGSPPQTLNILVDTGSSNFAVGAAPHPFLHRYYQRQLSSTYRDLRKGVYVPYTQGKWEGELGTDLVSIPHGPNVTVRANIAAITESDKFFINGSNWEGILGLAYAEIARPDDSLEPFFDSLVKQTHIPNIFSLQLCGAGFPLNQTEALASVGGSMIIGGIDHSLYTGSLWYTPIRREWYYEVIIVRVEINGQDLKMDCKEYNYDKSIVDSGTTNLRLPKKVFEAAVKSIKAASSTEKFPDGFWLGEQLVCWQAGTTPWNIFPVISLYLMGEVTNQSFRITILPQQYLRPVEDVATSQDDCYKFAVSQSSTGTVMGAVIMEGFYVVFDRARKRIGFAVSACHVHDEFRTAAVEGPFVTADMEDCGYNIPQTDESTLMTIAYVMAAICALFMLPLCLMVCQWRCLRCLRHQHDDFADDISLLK

Binder	IC50, Abeta x-40 in mouse cortical neurons [nM]	maximal % inhibition of Abeta x-40 [%]
B1	18.3	65
B2	9.71	60
B3	1.59	67

target: T1, human TfR extracellular domain with N-terminal His tag (human, UniProt P02786 89-760); assay: ELISA, TfR-coated plate, IgG in culture supernatant;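 also: human or cynomolgus TfR coated at 2 µg/mL, supernatant IgG titrated in 1:5 steps for 1 h, bound antibody read with HRP anti-human Fcγ and TMB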
T1 construct: Biotinylated in some assays; also called huTfR; HuTfR
T1 sequence (P02786 89-760 G142S): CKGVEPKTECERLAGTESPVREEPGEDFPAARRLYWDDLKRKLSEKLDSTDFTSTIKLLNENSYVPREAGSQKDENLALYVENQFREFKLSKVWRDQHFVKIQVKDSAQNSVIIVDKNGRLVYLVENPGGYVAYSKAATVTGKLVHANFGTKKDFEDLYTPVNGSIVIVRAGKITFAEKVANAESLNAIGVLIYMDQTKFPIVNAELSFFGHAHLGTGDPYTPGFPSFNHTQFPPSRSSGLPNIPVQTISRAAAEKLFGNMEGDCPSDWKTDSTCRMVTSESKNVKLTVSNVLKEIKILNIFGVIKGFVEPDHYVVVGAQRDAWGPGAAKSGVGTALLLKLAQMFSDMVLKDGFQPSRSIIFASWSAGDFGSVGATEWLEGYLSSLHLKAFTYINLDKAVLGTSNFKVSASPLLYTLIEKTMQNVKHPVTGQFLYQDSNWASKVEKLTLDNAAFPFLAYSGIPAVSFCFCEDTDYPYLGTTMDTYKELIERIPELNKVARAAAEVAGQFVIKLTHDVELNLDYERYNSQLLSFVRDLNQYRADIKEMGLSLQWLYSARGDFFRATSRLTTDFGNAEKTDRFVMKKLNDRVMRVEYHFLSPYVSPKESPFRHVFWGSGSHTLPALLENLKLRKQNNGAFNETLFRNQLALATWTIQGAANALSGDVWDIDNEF

Binder	EC50 [ng/mL]
B4	0.2
B5	0.2
B6	0.4
B7	0.3
B8	0.2
B9	1.5

Target: T2, cyno TfR extracellular domain (analogous construct to human TfR ecd) (cynomolgus monkey, UniProt Q5RDH6 87-760 (Pongo abelii entry))
T2 construct: also called cynoTfR ecd
T2 chain: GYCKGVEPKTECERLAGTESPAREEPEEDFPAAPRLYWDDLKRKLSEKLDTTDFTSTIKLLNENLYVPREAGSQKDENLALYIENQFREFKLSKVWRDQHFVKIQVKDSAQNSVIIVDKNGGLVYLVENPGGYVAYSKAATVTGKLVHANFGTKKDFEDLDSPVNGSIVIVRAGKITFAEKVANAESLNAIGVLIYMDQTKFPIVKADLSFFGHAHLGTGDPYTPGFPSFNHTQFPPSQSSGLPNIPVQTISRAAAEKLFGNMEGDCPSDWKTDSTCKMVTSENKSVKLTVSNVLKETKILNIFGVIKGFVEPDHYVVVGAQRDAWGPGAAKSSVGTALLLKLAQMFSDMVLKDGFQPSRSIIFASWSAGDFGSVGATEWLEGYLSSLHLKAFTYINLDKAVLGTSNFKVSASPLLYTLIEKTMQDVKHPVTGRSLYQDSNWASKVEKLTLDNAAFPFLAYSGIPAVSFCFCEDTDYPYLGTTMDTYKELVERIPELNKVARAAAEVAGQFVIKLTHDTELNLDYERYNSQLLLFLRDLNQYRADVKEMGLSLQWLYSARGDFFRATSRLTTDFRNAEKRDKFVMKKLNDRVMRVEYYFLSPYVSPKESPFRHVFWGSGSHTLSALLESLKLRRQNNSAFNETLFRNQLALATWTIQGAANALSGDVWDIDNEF
Assay: as above

Binder	EC50 [ng/mL]
B4	0.8
B5	0.6
B6	0.6
B7	0.5
B10	410
B8	0.5

target: His-tagged BACE1 protein (Example 15) (Homo sapiens (Human), UniProt P56817 22-457); assay: SPR (Biacore T200), Fab on captured His-BACE1;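 also: Single-cycle kinetics with serially diluted Fab flowed over BACE1 captured by anti-His antibody on a CM5 chip, rates fitted to a one-to-one Langmuir model, Kd derived as koff over kon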
Sequence (P56817 22-457 limits assumed): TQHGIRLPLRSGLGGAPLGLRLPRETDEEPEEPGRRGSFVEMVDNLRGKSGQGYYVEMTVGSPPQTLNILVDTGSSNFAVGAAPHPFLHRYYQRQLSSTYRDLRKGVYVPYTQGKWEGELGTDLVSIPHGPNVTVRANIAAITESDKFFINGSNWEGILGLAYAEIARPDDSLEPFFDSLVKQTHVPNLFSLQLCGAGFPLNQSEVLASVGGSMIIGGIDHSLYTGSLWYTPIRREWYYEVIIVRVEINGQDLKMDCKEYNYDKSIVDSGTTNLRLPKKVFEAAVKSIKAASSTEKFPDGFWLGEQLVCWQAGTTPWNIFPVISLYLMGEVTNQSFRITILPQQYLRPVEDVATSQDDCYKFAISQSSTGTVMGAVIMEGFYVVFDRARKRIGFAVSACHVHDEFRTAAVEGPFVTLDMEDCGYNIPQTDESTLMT

Binder	Kd [nM]	koff [s⁻¹]	kon [M⁻¹ s⁻¹]
B11	1.09	0.000403	371000
B12	0.52	0.000447	854000
B13	0.68	0.000305	445000
B14	0.46	0.00041	891000
B15	0.78	0.000278	356000
B16	0.62	0.000333	542000
B17	0.29	0.000142	480000
B18	0.24	0.000161	654000
B19	0.57	0.000474	839000
B20	0.64	0.000495	774000
B21	0.58	0.000142	245000
B22	0.56	0.000411	734000
B23	0.53	0.000228	428000
B24	0.56	0.000275	488000
B25	0.26	0.00017	638000
B26	0.69	0.000506	756000

— patent publication US20180057604A1 (Genentech, published 2018)
